In patent US11298402B2, “Lysosomal degradation of lipids and proteins and method of use thereof” (University of Ottawa, priority 2015, dated 2022):

B1: Vps11: HOPS subunit overexpressed from plasmid (GFP-tagged) (protein)
chain: AAYLQWRRFVFFEKELVKEPLGNDGATPGAAPTSGPTASKFLCLPPGITVCDSGRGSLVFGDMEGQIWFLPRSLQLTGFQAYKLRVTHLYQLKQHNILASVGEDEEGINPLVKIWNLEKRDGGNPLCTRILPAIPGTEPTVVSCLTVHENLNFMAIGFTDGSVTLNKGDITRDRHSKTQILHKGSYPVTGLAFRQAGKTTHLFVVTTENVQSYIVSGKDYPRVELDTHGCGLRCSALSDPSQDLQFIVAGDECVYLYQPDERGPCFAFEGHKLIAHWFRGYLVIVSRDRKVSPKSEFTSRDSQNSDKQILNIYDLCNKFIAYSAVFEDVVDVLAEWGSLYVLTRDGRVHALQEKDTQTKLEMLFKKNLFEMAINLAKSQHLDSDGLAQIFMQYGDHLYSKGNHDGAVQQYIRTIGKLEPSYVIRKFLDAQRIHNLTAYLQTLHRQSLANADHTTLLLNCYTKLKDSSKLEEFIKTKSESEVHFDVETAIKVLRQAGYYSHALYLAENHAHHEWYLKIQLEDIKNYQEALRYIGKLPFEQAESNMKRYGKILMHHIPEQTTQLLKGLCTDYRPSLEGRGDREFPSCRANSEEFIPIFANNPRELKAFLEHMSEVQPDSPQGIYDTLLELRLQNWAHEKDPQAKEKLHAEAISLLKSGRFCDVFDKALVLCQMHDFQDGVLYLYEQGKLFQQIMHYHMQHEQYRQVIAVCERHGEQEPSLWEQALSYFARKEEDCKEYVAAVLRHIENKSLMPPLLVVQTLAHNSTATLSIIRDYLVQKLQKQSQQIAQDELRVRRYREETTRIRQEIQELKASPKIFQKTKCSICNSALELPSVHFLCGHSFHQHCFESYSESDADCPTCLPENRKVMDMIRAQEQKRDLHDQFQHQLKCSNDSFSVIADYFGRGVFNKLTLLTDPPTARLTPSLEAGLQRDLLMHSRRGT
B2: Vps39: HOPS subunit overexpressed from plasmid (GFP-tagged) (protein, UniProt Q96JC1 1-886, looked up)
Vam6/Vps39-like protein: MHDAFEPVPILEKLPLQIDCLAAWEEWLLVGTKQGHLLLYRIRKDVVPADVASPESGSCNRFEVTLEKSNKNFSKKIQQIHVVSQFKILVSLLENNIYVHDLLTFQQITTVSKAKGASLFTCDLQHTETGEEVLRMCVAVKKKLQLYFWKDREFHELQGDFSVPDVPKSMAWCENSICVGFKRDYYLIRVDGKGSIKELFPTGKQLEPLVAPLADGKVAVGQDDLTVVLNEEGICTQKCALNWTDIPVAMEHQPPYIIAVLPRYVEIRTFEPRLLVQSIELQRPRFITSGGSNIIYVASNHFVWRLIPVPMATQIQQLLQDKQFELALQLAEMKDDSDSEKQQQIHHIKNLYAFNLFCQKRFDESMQVFAKLGTDPTHVMGLYPDLLPTDYRKQLQYPNPLPVLSGAELEKAHLALIDYLTQKRSQLVKKLNDSDHQSSTSPLMEGTPTIKSKKKLLQIIDTTLLKCYLHTNVALVAPLLRLENNHCHIEESEHVLKKAHKYSELIILYEKKGLHEKALQVLVDQSKKANSPLKGHERTVQYLQHLGTENLHLIFSYSVWVLRDFPEDGLKIFTEDLPEVESLPRDRVLGFLIENFKGLAIPYLEHIIHVWEETGSRFHNCLIQLYCEKVQGLMKEYLLSFPAGKTPVPAGEEEGELGEYRQKLLMFLEISSYYDPGRLICDFPFDGLLEERALLLGRMGKHEQALFIYVHILKDTRMAEEYCHKHYDRNKDGNKDVYLSLLRMYLSPPSIHCLGPIKLELLEPKANLQAALQVLELHHSKLDTTKALNLLPANTQINDIRIFLEKVLEENAQKKRFNQVLKNLLHAEFLRVQEERILHQQVKCIITEEKVCMVCKKKIGNSAFARYPNGVVVHYFCSKEVNPADT
modifications: GFP tag

Key:
[1] = system: McA-RH7777 cells stably expressing human apoB-100 and human apoC-III (A18-C3); format: cell-based; conditions: for effect on EPA-induced lipid degradation (CLD turnover): cells silenced, transfected or pre-treated, then EPA 0.4 mM, 6 h; for effect on lipid degradation when co-expressed with Arl8b^WT, Arl8b^Q75L or Arl8b^T34N: co-transfected cells, 6 h post-OA or -EPA
Experimental: (§1) In certain non-limiting examples described herein, McA-RH7777 cells stably expressing human apoB-100 and human apoC-III (designated A18-C3) were used for the studies. […] In addition, these studies, particularly those concerning EPA- or DHA-triggered lysosomal motility and CLD degradation, were also performed using primary rat hepatocytes. Transfection of plasmids encoding proteins of interest, or transfection of siRNA specific for silencing target gene expression, was achieved using the FuGENE HP Extreme reagent (Roche). Representative gene silencing siRNA sequences, which are not meant to be limiting, are described in Table 1, and plasmids encoding proteins of interest are described in Table 2. The effectiveness of siRNA silencing was verified by Western-blotting of cellular content of the target proteins, and by intracellular localization assay using siRNA-Tracker (Mirus Bioscience). Twenty-four h after plasmid transfection, or 48 h after siRNA transfection, the cells were cultured in lipid-rich media containing fetal bovine serum (20%) and OA (0.4 mM). The lipid-laden cells were switched to fresh media supplemented with OA or EPA (0.4 mM). In live imaging experiments, LipidTOX Red (Life Technologies) and LysoTracker (Life Technologies) were added to media prior to EPA treatment, to visualize lipid droplets and lysosomes, respectively. For visualizing peroxisomes, Peroxisome-GFP (Invitrogen) was introduced to the cells 24 h prior to experiments. Quantification of cell lipid contents was achieved either by direct mass measurement (HPTLC) and counting the number of lipid droplets using Image J Lipid Droplet Counter Plug-In, or indirectly by Western blot analysis of cellular content of ADRP. Secretion of apoB and TG-rich lipoprotein was determined by Western blot analysis and metabolic labeling. Mitochondrial β-oxidation was measured using MitoSOX Red (Life Technologies) in situ. Autophagic flux was determined by using Cyto-ID assay (Enzo Life Science) and by monitoring GFP-LC3 clustering in situ. Interaction of Arl8b and subunits of the HOPS complex was determined in situ by the proximity ligation assay (Olink Biosience). Cytoplasmic pH was measured using the cytosolic pHrodo indicator reagent (Invitrogen). Live imaging of fluorescent-tagged proteins was performed 1 h post-EPA treatment. Cells were also collected at the time of EPA treatment for transmission EM and tomography, as well as immuno-EM. For movies, cells were imaged at 60 sec intervals every 5 min, for a total of 30 min.
The A18-C3 cells were cultured in DMEM (Invitrogen) supplemented with fetal bovine serum (20%), penicillin (50 U/mL), streptomycin (50 μg/mL, Invitrogen) and Geneticin/G418 (500 μg/mL, Gibco) at 37° C. in 5% CO2. Transfection was conducted when cells were 60-70% confluence. Appropriate plasmids were mixed with FuGENE HP extreme reagent (Roche Diagnostic), according to manufacturer's protocol, and incubated for 30 min. Twenty-four h after transfection, cells were switched to lipid-rich media containing OA (0.4 mM) for additional 16 h prior to imaging and biochemical analysis. In silencing experiments, appropriate siRNAs were transfected into cells using the X-treme GENE siRNA regent (Roche Diagnostic). Localization of siRNA in transfected cells in situ was carried out using the Cy5 Label IT-siRNA Tracker (Minis Bioscience #7213) according to manufacturer's protocol. Forty-eight h after transfection, cells were switched to lipid-rich media containing OA (0.4 mM) for additional 16 h prior to imaging and biochemical analysis.
Quantification of lipid droplets was carried out using confocal and differential interface contrast (DIC) microscopy. Lipid droplets were stained with LipidTOX Red (Invitrogen) before adding OA or EPA. All images were visualized using a 63× oil immersion objective lens. Z-series stacks were acquired with 0.2 μm steps. […]

[2] = system: McA-RH7777 cells (A18-C3); assay: Live imaging of lysosomal motility and lysosome-CLD interaction (kiss-and-run); format: cell-based, rat; conditions: for effect on EPA-triggered lysosomal motility / lysosomal interaction with CLD: cells silenced, transfected or pre-treated (15 min) before EPA
Experimental: as §1
Cells were grown on 35-mm glass bottom dishes (Ibidi GmbH München, Germany) for 16 h in DMEM supplemented with FBS (20%) and OA (0.4 mM). Cells were imaged using a Zeiss 510 META laser scanning confocal microscope with a heated CO2-controlled stage (5% CO2 at 37° C.). Images were captured at a frame-rate of 30 frame/sec using a 63×. N.A.1.4 objective. Recommended laser lines and filter combinations were used for each dye. For visualization of lipid droplets, lysosomes, mitochondria, and mitochondrial β-oxidation, the respective reagents LipidTOX Red (Invitrogen), LysoTracker (Life Technology), MitoTracker (Life Technology), MitoSox Red (Invitrogen), and Peroxisome-GFP BacMam2.0 (Invitrogen) were introduced into the cells, according to manufacturers' recommendations, prior to EPA treatment.
Cells were cultured with lipid-rich media containing OA (0.4 mM) for 16 h. The lipid-laden cells were switched to fresh media containing EPA (0.4 mM) for 1 h, and the lysosomal movement towards lipid droplets was recorded by time-lapse microscopy. Fluorescent intensity of lysosomal signals at the periphery of selected individual lipid droplet was measured using Image J Live Intensity Profiler Plug-in^31-33 over a period of 40 sec. Quantification for each condition was carried out for 60 individual lipid droplets from three independent experiments. Constant threshold was applied to all of the images in each experiment.

[3] = system: endogenous HOPS subunits (Vps41, Vps11, Vps39); assay: Proximity ligation assay (in situ co-IP) of Arl8b with HOPS subunits; format: cell-based, rat; conditions: mCherry-tagged Arl8b
Experimental: as §1
Cells were transfected with plasmids encoding RFP-tagged Arl8b^WT, Arl8b^Q75L, or Arl8b^T34N. The cells were treated with OA for 16 h (baseline condition as control). […] Quantification of signals was done in a total of 50 cells under each condition from 3 independent experiments.

[4] = system: McA-RH7777 cells (A18-C3); assay: Immuno-EM of Arl8b organellar association; format: cell-based, rat; conditions: RFP-tagged Arl8b in transfected cells, 1 h post-EPA
Experimental: For immunogold labeling, pellets of cells cultured in media containing OA or EPA (0.4 mM) were fixed with 0.5% glutaraldehyde and 4% paraformaldehyde in 0.1 M phosphate buffer (pH 7.4) and dehydrated through a series of graded ethanol dilutions, and embedded in LR White acrylic resin (London Resin Company). Ultrathin sections (80 nm) were placed on Formvar-coated nickel grids. For post-embedding immunolabeling, the sections were incubated with an anti-Arl8b antibody (Fitzgerald) for 1 h. For ^RFPArl8b-transfected cells, that primary antibody used was anti-RFP (Abcam). After washing with 0.2 M sodium cacodylate buffer containing 0.1% calcium chloride, pH 7.4, the samples were incubated with the secondary antibody conjugated with 10-nm gold particles. To increase contrast, the ultrathin sections were stained with 2% uranyl acetate for 6 min and Reynold's lead for 5 min. The grids were examined with a Tecnai 12 120 kV TEM as described above.

[5] = system: C57BL/6 mice; assay: Diet-induced fatty liver mouse model (high-fat-high-sucrose diet), Oil Red O; format: in vivo; conditions: adenovirus injected 1 day before HFHS diet for up to 4 days
Experimental: The respective Arl8b^T34N (DN), Arl8b^Q75L (DA), and Arl8b^WT constructs, along with empty virus (EV; control treatment) were injected into mice 1 day prior to feeding with a high fat diet for up to 4 days. The livers were stained with Oil Red O to determine the lipid contents, under the expression of various forms of Arl8b.
In these experiments, C57BL/6 mice were injected with adenovirus encoding different variants, namely Arl8b^T34N, Arl8b^Q75L, and Arl8b^WT. In these mice, expression of Arl8b proteins encoded by the adenoviral vectors lasts at least a few weeks. Thus, 1-day after viral injection, the mice were placed on a high-fat-high-sucrose (HFHS) diet for up to 4 days.

[6] = system: hepatic cells; assay: Hepatic glucose uptake (fluorescent 2-NBDG assay); format: cell-based; conditions: transfected cells treated with EPA

Molecule | effect on EPA-induced lipid degradation (CLD turnover) [1] | duration of association between lysosomes and CLD (the on phase) ([2]; GFP-tagged Arl8b-expressing cells, EPA) | effect on EPA-triggered lysosomal motility / lysosomal interaction with CLD [2] | binding to endogenous HOPS subunits ([3]; cells treated with OA) | binding to endogenous HOPS subunits ([3]; upon addition of EPA) | organellar association (lysosome vs CLD) [4] | liver steatosis (Oil Red O) [5] | glucose uptake [6] | effect on lipid degradation when co-expressed with Arl8b^WT, Arl8b^Q75L or Arl8b^T34N [1]
Arl8b^WT: wild-type ADP-ribosylation factor-like protein 8b, overexpressed from plasmid or adenovirus; tagged forms used | An increase in lipid degradation | approximately 15 seconds | does not affect lysosomal motility | binds predominately to endogenous Vps41 and to a lesser extent Vps11 | binds to all three Vps proteins examined | dual presentation between lysosomes and CLD | steatosis became apparent | Low level of glucose uptake | 
B1 | block lipid degradation |  | enhanced lysosomal-CLD interaction |  |  |  |  |  | invariably blocks lipid degradation
B2 | promotes the process |  | does not interfere with termination of lysosomal lipid droplet engulfment process and dissociation from CLD |  |  |  |  |  | promotes the process
